Consider 18 molecules from patent US20210309732A1 (ELIXIRON IMMUNOTHERAPEUTICS HONG KONG, published 2021).

This experiment has as its target T1, recombinant human GM-CSF (human, UniProt P04141 18-144).
T1 construct: also called rhGM-CSF; CSF2
The experiment is described as follows: ELISA on coated rhGM-CSF, UBA relative to 1D2. The source says:
Some of the residues in the CDRs are essential for epitope binding affinity and/or specificity. A number of computational methods were developed to detect these functional residues, generally known as ‘specificity-determining resides’ (SDRs). […] Based on the analysis, 7 amino acid residues in VH and 3 amino acid residues in VL were selected as the SDRs. The residues are labeled X₁ to X₁₀ for the ease of reference. The SDRs on VH are: Heavy chain D31 (HD31) (X₁), HK32 (X₂), HK54(X₃), HR100 (X₄), HY102 (X₅), HY103 (X₆) and HQ105 (X₇). The SDRs on VL are Light chain V32 (LV32) (X₈), LP94 (X₉) and LV95 (X₁₀). The SDRs were subsequently mutated by site-directed mutagenesis to other amino acids to generate mutant VH or VL clones. HEK293 cells were co-transfected with a vector encoding a mutant VH paired with a vector encoding a wild type VL or a vector encoding a wild type VH paired with a vector encoding a mutant VL. The antibody clones were harvested from the culture medium. The binding affinity of each antibody clone to human GM-CSF was tested by ELISA. The ELISA was done according to the following procedures. ELISA plate was coated with 50 μl of rhGM-CSF at 1 μg/mL. The plate was washed with 200 μl PBST for three times, followed by blocking with 1% BSA for 1 hour at room temperature. The antibody clones to be tested were diluted at 1:12000. 100 μl of the diluted antibodies were added to the cell at 100 μl/well. The plate was incubated at room temperature for 1 hour. The plate was then washed and incubated with 1:5000 diluted goat-anti-human secondary antibody conjugated with HRP at room temperature for one hour. The ELISA assay was developed with 100 μl developing buffer containing H₂O₂-Amplx Red per well in the dark for 5 min and the fluorescence intensity was read at Ex.530/Em.590 nm, with cutoff at 570 nm. The Unit Binding Activity (UBA) of each sample was calculated as the fluorescence signal/antibody clone dilution factor.

T1 sequence (P04141 18-144 limits assumed): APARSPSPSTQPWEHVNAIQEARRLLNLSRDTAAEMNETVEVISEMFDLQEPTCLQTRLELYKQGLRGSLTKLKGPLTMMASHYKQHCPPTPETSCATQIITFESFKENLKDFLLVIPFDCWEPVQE

B1: 1D2 SDR mutant HK54R (antibody, IgG1, V domains shown)
VH: QVQLVQSGAEVKKPGASVKVSCEASGYTFTDKYLHWVRQAPGQGLEWMAWINPRSGGTFYAQNFKGRVTVTRDTSINTAYLELTSLRLDDTSTYYCARGRDYYDQGAADLWGQGTMVTVSS
VL: DIQLTQSPSSLSASVGDRVTITCRASQGINSVLAWYQQKPGKAPKLLLYAASKLESGVPSRFSGSGSGTDYTLTISSLQPEDFGTYYCQQYYSPVRTFGQGTKVEIKR
notes: also called X3 R
For the molecule B1, the “binding affinity % of 1D2” value was 98%.

B2: 1D2 SDR mutant HQ105T (antibody, IgG1, V domains shown)
VH: QVQLVQSGAEVKKPGASVKVSCEASGYTFTDKYLHWVRQAPGQGLEWMAWINPKSGGTFYAQNFKGRVTVTRDTSINTAYLELTSLRLDDTSTYYCARGRDYYDTGAADLWGQGTMVTVSS
VL: DIQLTQSPSSLSASVGDRVTITCRASQGINSVLAWYQQKPGKAPKLLLYAASKLESGVPSRFSGSGSGTDYTLTISSLQPEDFGTYYCQQYYSPVRTFGQGTKVEIKR
notes: also called X7 T
For the molecule B2, the “binding affinity % of 1D2” value came out at 133%.

B3: 1D2 SDR mutant HQ105V (antibody, IgG1, V domains shown)
VH: QVQLVQSGAEVKKPGASVKVSCEASGYTFTDKYLHWVRQAPGQGLEWMAWINPKSGGTFYAQNFKGRVTVTRDTSINTAYLELTSLRLDDTSTYYCARGRDYYDVGAADLWGQGTMVTVSS
VL: DIQLTQSPSSLSASVGDRVTITCRASQGINSVLAWYQQKPGKAPKLLLYAASKLESGVPSRFSGSGSGTDYTLTISSLQPEDFGTYYCQQYYSPVRTFGQGTKVEIKR
notes: also called X7 V
Take B3: the “binding affinity % of 1D2” value came out at 155%.

B4: 1D2 SDR mutant HK54W (antibody, IgG1, V domains shown)
VH: QVQLVQSGAEVKKPGASVKVSCEASGYTFTDKYLHWVRQAPGQGLEWMAWINPWSGGTFYAQNFKGRVTVTRDTSINTAYLELTSLRLDDTSTYYCARGRDYYDQGAADLWGQGTMVTVSS
VL: DIQLTQSPSSLSASVGDRVTITCRASQGINSVLAWYQQKPGKAPKLLLYAASKLESGVPSRFSGSGSGTDYTLTISSLQPEDFGTYYCQQYYSPVRTFGQGTKVEIKR
notes: also called X3 W
As to B4, the “binding affinity % of 1D2” value is 88%.

B5: 1D2 SDR mutant HQ105L (antibody, IgG1, V domains shown)
VH: QVQLVQSGAEVKKPGASVKVSCEASGYTFTDKYLHWVRQAPGQGLEWMAWINPKSGGTFYAQNFKGRVTVTRDTSINTAYLELTSLRLDDTSTYYCARGRDYYDLGAADLWGQGTMVTVSS
VL: DIQLTQSPSSLSASVGDRVTITCRASQGINSVLAWYQQKPGKAPKLLLYAASKLESGVPSRFSGSGSGTDYTLTISSLQPEDFGTYYCQQYYSPVRTFGQGTKVEIKR
notes: also called X7 L
B5: the “binding affinity % of 1D2” value worked out at 63%.

B6: 1D2 SDR mutant HQ105E (antibody, IgG1, V domains shown)
VH: QVQLVQSGAEVKKPGASVKVSCEASGYTFTDKYLHWVRQAPGQGLEWMAWINPKSGGTFYAQNFKGRVTVTRDTSINTAYLELTSLRLDDTSTYYCARGRDYYDEGAADLWGQGTMVTVSS
VL: DIQLTQSPSSLSASVGDRVTITCRASQGINSVLAWYQQKPGKAPKLLLYAASKLESGVPSRFSGSGSGTDYTLTISSLQPEDFGTYYCQQYYSPVRTFGQGTKVEIKR
notes: also called X7 E
For B6, the “binding affinity % of 1D2” value worked out at 173%.

B7: 1D2 SDR mutant HR100C (antibody, IgG1, V domains shown)
VH: QVQLVQSGAEVKKPGASVKVSCEASGYTFTDKYLHWVRQAPGQGLEWMAWINPKSGGTFYAQNFKGRVTVTRDTSINTAYLELTSLRLDDTSTYYCARGCDYYDQGAADLWGQGTMVTVSS
VL: DIQLTQSPSSLSASVGDRVTITCRASQGINSVLAWYQQKPGKAPKLLLYAASKLESGVPSRFSGSGSGTDYTLTISSLQPEDFGTYYCQQYYSPVRTFGQGTKVEIKR
notes: also called X4 C
With B7, the “binding affinity % of 1D2” value stood at 89%.

B8: 1D2 SDR mutant HK54V (antibody, IgG1, V domains shown)
VH: QVQLVQSGAEVKKPGASVKVSCEASGYTFTDKYLHWVRQAPGQGLEWMAWINPVSGGTFYAQNFKGRVTVTRDTSINTAYLELTSLRLDDTSTYYCARGRDYYDQGAADLWGQGTMVTVSS
VL: DIQLTQSPSSLSASVGDRVTITCRASQGINSVLAWYQQKPGKAPKLLLYAASKLESGVPSRFSGSGSGTDYTLTISSLQPEDFGTYYCQQYYSPVRTFGQGTKVEIKR
notes: also called X3 V
As to B8, the “binding affinity % of 1D2” value was determined as 74%.

B9: 1D2 SDR mutant HQ105S (antibody, IgG1, V domains shown)
VH: QVQLVQSGAEVKKPGASVKVSCEASGYTFTDKYLHWVRQAPGQGLEWMAWINPKSGGTFYAQNFKGRVTVTRDTSINTAYLELTSLRLDDTSTYYCARGRDYYDSGAADLWGQGTMVTVSS
VL: DIQLTQSPSSLSASVGDRVTITCRASQGINSVLAWYQQKPGKAPKLLLYAASKLESGVPSRFSGSGSGTDYTLTISSLQPEDFGTYYCQQYYSPVRTFGQGTKVEIKR
notes: also called X7 S
For the molecule B9, the “binding affinity % of 1D2” value turned out to be 134%.

B10: 1D2 SDR mutant HK54T (antibody, IgG1, V domains shown)
VH: QVQLVQSGAEVKKPGASVKVSCEASGYTFTDKYLHWVRQAPGQGLEWMAWINPTSGGTFYAQNFKGRVTVTRDTSINTAYLELTSLRLDDTSTYYCARGRDYYDQGAADLWGQGTMVTVSS
VL: DIQLTQSPSSLSASVGDRVTITCRASQGINSVLAWYQQKPGKAPKLLLYAASKLESGVPSRFSGSGSGTDYTLTISSLQPEDFGTYYCQQYYSPVRTFGQGTKVEIKR
notes: also called X3 T
With B10, the “binding affinity % of 1D2” value stood at 101%.

B11: 1D2 SDR mutant HQ105G (antibody, IgG1, V domains shown)
VH: QVQLVQSGAEVKKPGASVKVSCEASGYTFTDKYLHWVRQAPGQGLEWMAWINPKSGGTFYAQNFKGRVTVTRDTSINTAYLELTSLRLDDTSTYYCARGRDYYDGGAADLWGQGTMVTVSS
VL: DIQLTQSPSSLSASVGDRVTITCRASQGINSVLAWYQQKPGKAPKLLLYAASKLESGVPSRFSGSGSGTDYTLTISSLQPEDFGTYYCQQYYSPVRTFGQGTKVEIKR
notes: also called X7 G
Consider B11, for which the “binding affinity % of 1D2” value was 105%.

B12: 1D2 SDR mutant HR100G (antibody, IgG1, V domains shown)
VH: QVQLVQSGAEVKKPGASVKVSCEASGYTFTDKYLHWVRQAPGQGLEWMAWINPKSGGTFYAQNFKGRVTVTRDTSINTAYLELTSLRLDDTSTYYCARGGDYYDQGAADLWGQGTMVTVSS
VL: DIQLTQSPSSLSASVGDRVTITCRASQGINSVLAWYQQKPGKAPKLLLYAASKLESGVPSRFSGSGSGTDYTLTISSLQPEDFGTYYCQQYYSPVRTFGQGTKVEIKR
notes: also called X4 G
B12: the “binding affinity % of 1D2” value came out at 125%.

B13: 1D2 SDR mutant HK54S (antibody, IgG1, V domains shown)
VH: QVQLVQSGAEVKKPGASVKVSCEASGYTFTDKYLHWVRQAPGQGLEWMAWINPSSGGTFYAQNFKGRVTVTRDTSINTAYLELTSLRLDDTSTYYCARGRDYYDQGAADLWGQGTMVTVSS
VL: DIQLTQSPSSLSASVGDRVTITCRASQGINSVLAWYQQKPGKAPKLLLYAASKLESGVPSRFSGSGSGTDYTLTISSLQPEDFGTYYCQQYYSPVRTFGQGTKVEIKR
notes: also called X3 S
Turning to B13, the “binding affinity % of 1D2” value was 82%.

B14: 1D2 SDR mutant HR100A (antibody, IgG1, V domains shown)
VH: QVQLVQSGAEVKKPGASVKVSCEASGYTFTDKYLHWVRQAPGQGLEWMAWINPKSGGTFYAQNFKGRVTVTRDTSINTAYLELTSLRLDDTSTYYCARGADYYDQGAADLWGQGTMVTVSS
VL: DIQLTQSPSSLSASVGDRVTITCRASQGINSVLAWYQQKPGKAPKLLLYAASKLESGVPSRFSGSGSGTDYTLTISSLQPEDFGTYYCQQYYSPVRTFGQGTKVEIKR
notes: also called X4 A
As to B14, the “binding affinity % of 1D2” value came out at 76%.

B15: 1D2 SDR mutant HQ105M (antibody, IgG1, V domains shown)
VH: QVQLVQSGAEVKKPGASVKVSCEASGYTFTDKYLHWVRQAPGQGLEWMAWINPKSGGTFYAQNFKGRVTVTRDTSINTAYLELTSLRLDDTSTYYCARGRDYYDMGAADLWGQGTMVTVSS
VL: DIQLTQSPSSLSASVGDRVTITCRASQGINSVLAWYQQKPGKAPKLLLYAASKLESGVPSRFSGSGSGTDYTLTISSLQPEDFGTYYCQQYYSPVRTFGQGTKVEIKR
notes: also called X7 M
B15: the “binding affinity % of 1D2” value stood at 148%.

B16: 1D2 SDR mutant HR100I (antibody, IgG1, V domains shown)
VH: QVQLVQSGAEVKKPGASVKVSCEASGYTFTDKYLHWVRQAPGQGLEWMAWINPKSGGTFYAQNFKGRVTVTRDTSINTAYLELTSLRLDDTSTYYCARGIDYYDQGAADLWGQGTMVTVSS
VL: DIQLTQSPSSLSASVGDRVTITCRASQGINSVLAWYQQKPGKAPKLLLYAASKLESGVPSRFSGSGSGTDYTLTISSLQPEDFGTYYCQQYYSPVRTFGQGTKVEIKR
notes: also called X4 I
Take B16: the “binding affinity % of 1D2” value amounted to 80%.

B17: 1D2 SDR mutant HR100E (antibody, IgG1, V domains shown)
VH: QVQLVQSGAEVKKPGASVKVSCEASGYTFTDKYLHWVRQAPGQGLEWMAWINPKSGGTFYAQNFKGRVTVTRDTSINTAYLELTSLRLDDTSTYYCARGEDYYDQGAADLWGQGTMVTVSS
VL: DIQLTQSPSSLSASVGDRVTITCRASQGINSVLAWYQQKPGKAPKLLLYAASKLESGVPSRFSGSGSGTDYTLTISSLQPEDFGTYYCQQYYSPVRTFGQGTKVEIKR
notes: also called X4 E
Regarding B17, the “binding affinity % of 1D2” value turned out to be 92%.

B18: 1D2 SDR mutant HQ105W (antibody, IgG1, V domains shown)
VH: QVQLVQSGAEVKKPGASVKVSCEASGYTFTDKYLHWVRQAPGQGLEWMAWINPKSGGTFYAQNFKGRVTVTRDTSINTAYLELTSLRLDDTSTYYCARGRDYYDWGAADLWGQGTMVTVSS
VL: DIQLTQSPSSLSASVGDRVTITCRASQGINSVLAWYQQKPGKAPKLLLYAASKLESGVPSRFSGSGSGTDYTLTISSLQPEDFGTYYCQQYYSPVRTFGQGTKVEIKR
notes: also called X7 W
For B18, the “binding affinity % of 1D2” value is 68%.
